This test concerns hippocampal proteins. Description: DIA quantification proteomics, hippocampus of Mdga2+/- vs WT mice. As to conditions: S3 Table, downregulated DEPs; for log2FC: Mdga2+/- vs WT mouse hippocampus (HET-HIP-VS-WT-HIP), SE, pvalue and adj_pvalue in own columns c3-c5; for Class: regulation class of the protein, HET-HIP-VS-WT-HIP. Further details: species or system mouse. How it is done: The hippocampus of 1.5–2-month-old Mdga2^ +/− male mice and their WT littermate controls was collected and sent to the BGI company for DIA quantification proteomics and data analysis. Briefly, samples were lysed and sonicated. After centrifugation, the supernatant was taken for quantification. Equal amounts of proteins (100 μg) per sample were subjected to trypsin enzymatic hydrolysis. After dryness, 10 μg enzymatic peptides per sample were separated by high-pH fractionation into a total of 10 fractions using high-performance liquid chromatography (HPLC) and freeze-dried. Data-dependent acquisition (DDA) fractions and DIA samples were analyzed by nano-LC–MS/MS. DDA data was identified by Andromeda search engine within MaxQuant. Identified results were used by Spectronaut^TM for spectral library construction. For DIA data, Spectronaut^TM used the constructed spectral library information to complete deconvolution and extraction, and used the mProphet algorithm to complete analytical quality control for obtaining reliable quantitative results. The mass spectrometry proteomics data have been deposited to the ProteomeXchange Consortium via the PRIDE [62] partner repository with the dataset identifier PXD050810. DEPs between comparison groups were identified based on the quantitative results, using the fold change >1.1 and p-value <0.05 as the criteria. After retrieval from the UniProtKB database, identified DEPs were processed for GO analysis by using DAVID (https://david.ncifcrf.gov/home.jsp) and Metascape database (https://metascape.org/gp/index.html).

This passage reports log2FC and Class results from PMC11960969, “Mdga2 deficiency leads to an aberrant activation of BDNF/TrkB signaling that underlies autism-relevant synaptic and behavioral changes in mice” (PLOS Biology, 2025).

B1: sp¦Q8BTY2¦S4A7_MOUSE (protein, UniProt Q8BTY2 1-1034, looked up)
Sodium bicarbonate …: MEADGAGEQMRPLLTRGPDEEAVVDLGKTSSTVNTKFEKEELESHRAVYVGVHVPFSKESRRRHKHRGHKHHHRRRKDKDSDKEDGRESPSYDTPSQRVQFILGTEDDDEEHIPHDLFTEMDELCYRDGEEYEWKETARWLKFEEDVEDGGDRWSKPYVATLSLHSLFELRSCILNGTVMLDMRASTLDEIADMVLDNMIASGQLDDSIRENVREALLKRHHHQNEKRFTSRIPLVRSFADIGILASPQSAPGNLDNSKSGEMKGNGSGGSRENSTVDFSKVDMNFMRKIPTGAEASNVLVGEVDFLERPIIAFVRLAPAVLLSGLTEVPVPTRFLFLLLGPAGKAPQYHEIGRSIATLMTDEIFHDVAYKAKDRNDLLSGIDEFLDQVTVLPPGEWDPSIRIEPPKSVPSQEKRKIPVFPNGSAAMSVGPPKEDDHHAGPELQRTGRLFGGLILDIKRKAPFFLSDFKDALSLQCLASILFLYCACMSPVITFGGLLGEATEGRISAIESLFGASLTGIAYSLFAGQPLTILGSTGPVLVFEKILFKFCRDYHLSYLSLRTSIGLWTSFLCIVLVATDASSLVCYITRFTEEAFAALICIIFIYEALEKLFHLGEIYAFNMHNNLDELTSYTCVCAEPSNPSNETLELWKRKNITAYSVSWGNLTVSECKTFHGMFVGSACGPHGPYVPDVLFWCVVLFFTTFFLSSFLKQFKTKGYFPTKVRSTISDFAVFLTIVIMVAIDYLVGIPSPKLHVPEKFEPTDPSRGWIISPLGDNPWWTLLIAAVPALLCTILIFMDQQITAVIINRKEHKLKFIPMPVLYGVFLYMGVSSLKGIQFFDRIKLFGMPAKHQPDLIYLRYVPLWKVHVFTVVQLTCLVLLWVIKASAAAVVFPMMVLALVFVRKLMDLCFTKRELSWLDDLMPESKKKKEDDKKKKEKEEAERMLQDDEDTVHLPFERGSLLQIPVKTLKYSIDPSVVNISDEMAKTAQWKALSMNTENAKVTRPNTSPEKPVSVTINFEDEPSKKYMDAETSL
Turning to B1, the log2FC was -1.445 and the Class result was “Down”.

B2: sp¦Q6A0D4¦RFTN1_MOUSE (protein, UniProt Q6A0D4 2-554, looked up)
Raftlin: GCSLNKLEKREEKRPGNIYSTLKRPQVETKVDVTYEYCFLEFTTLTAAELPRSSATRLASLRDLPDQLLELYQQGFSLAALHPFVQPTRRQEKILLEHIFRAILVKKTNRSQKAELHDEGYTLELDYCSSLEHLADQKLIPEFIKKVQEAASQGLKFVSVVPQYQPSVSSAGSRRLKPVANSVEDARDVKCTLGDRSSLENDTPKAAETDAATAGVNRRPETKPGSTGDVPSAQQPGIPSPSAENEAGEFPLRGLQPALDRSEGDPSNGPEELPSRKMEIFAFFNRPKSQQKCRQYYPVTIPLQVSKNGQTVSSLDASWLEHMSDHFRKGGVLVNAVFQLGMANDSFYGLTDGVFIFEAVSTEDNRTTQGYDAIVVEQWTVLEGTEVQTDYMPLLNSLAAYGWQLTCVLPTPILKTTREGNVSTKQIVFLQRPCLPQKTKKRESKFQWRFSRNEIHGRQTRKSKGKLSASNKQQAEENEKNLEDQFSKAGDVGNCVLGAPQWGRASEVREQRQGSAAVQNGPAGHNRDSVALRHSNPRAEAELAAGPTPTEAN
In the case of B2, the log2FC is recorded as -1.516 and the Class entry was “Down”.

B3: sp¦P48381¦RFX3_MOUSE (protein, UniProt P48381 1-749, looked up)
Transcription factor RFX3: MQTSETGSDTGSTVTLQTSVASQAAVPTQVVQQVPVQQQVQQVQTVQQVQHVYPAQVQYVEGSDTVYTNGAIRTTTYPYTETQMYSQNTGGNYFDTQGSSAQVTTVVSSHSMVGTGGIQMGVTGGQLISSSGGTYLIGNSMENSGHSVTHTTRASPATIEMAIETLQKSDGLSTHRSSLLNSHLQWLLDNYETAEGVSLPRSTLYNHYLRHCQEHKLDPVNAASFGKLIRSIFMGLRTRRLGTRGNSKYHYYGIRVKPDSPLNRLQEDMQYMAMRQQPMQQKQRYKPMQKVDGVADGFTGSGQQTGTSVEQTVIAQSQHHQQFLDASRALPEFGEVEISSLPDGTTFEDIKSLQSLYREHCEAILDVVVNLQFSLIEKLWQTFWRYSPSTPADGTTITESSNLSEIESRLPKAKLITLCKHESILKWMCNCDHGMYQALVEILIPDVLRPIPSALTQAIRNFAKSLEGWLSNAMNNIPQRMIQTKVAAVSAFAQTLRRYTSLNHLAQAARAVLQNTSQINQMLSDLNRVDFANVQEQASWVCQCDDNMVQRLETDFKMTLQQQSTLEQWAAWLDNVMMQALKPYEGRPSFPKAARQFLLKWSFYSSMVIRDLTLRSAASFGSFHLIRLLYDEYMFYLVEHRVAQVTGETPIAVMGEFGDLNAVSPGNLDKDEGSEVESETDEDLDDSSEPRAKREKTELSQAFPVGCMQPVLESAVQPSLLNPLHSEHIVTSTQTIRQCSATGNTYTAV
Take B3: the log2FC is on record as -1.5061 and the Class entry is reported as “Down”.

B4: sp¦Q8C5W0¦CLMN_MOUSE (protein, UniProt Q8C5W0 1-1052, looked up)
Calmin: MAAQEWDWFQREELIGQISDIRVQNLQVERENVQKRTFTRWINLHLEKCDPPLEVTDLFVDIQDGKILMALLEVLSGRNLLHEYKSSSHRIFRLNNIAKALKFLEDSNVKLVSIDAAEIADGNPSLVLGLIWNIILFFQIKELTGNLSRSSPSSSLSPGSGGTDSDSSYPPTPTTERSVAVAVKDQRKAIKTLLSWVQRKTRKYGVAVQDFAGSWRSGLAFLAVIKAIDPSLVDMKQALEDSTRDNLEKAFSIAHDSLHIPRLLEPEDIMVDMPDEQSIVTYVAQFLERFPELEPEDFVNPDKEAPIESTFVRIKESPSEQGSRVLLLSENGERAYTVNQETSYPPPDKVFVCDQLESPTGFCLDSAPSHKLSDSSTEFMHEIIDQVLQGSTGKTGSIAEPTPESSILSTRKDGRRSNSLPVKKTVHFEADLHKDASCSKDPFYSSDFRFEGSPKATKELSKQDGHVSLAEVSKEKKKSEQEARLVLEAASDKVPESTVDGLDAVPQDAQPSQDSSFCNGTVESPSSQGEKGPPPSSPGDHTLLANSTELKVQLLTVEPMDKEDYFECIPLKASKFNRDLVDFASTSQAFGEDPSSHEKTRGEEEGSENHAEKPGKRKSKSPRAETEAAESRLEPKKLEPPPKDPEQEDQGHALPPETPADKKPKVYEKAKRKSTRHHSEEEGEAESGFSAVCEEEIPSAPPSTSVSLETLRSHSEEGLDFKPSPPLSKISVIPHDLFYYPHYEVPLAAVLEAYAEGGEDLKSEDTDLEHPEDSYLQDSREEEADEDEEEAQSSQSSCSFSLPVDNSYPSVSEHVSHVDGSSEGPTSALGPGSPPSHEDHQPKETKENGPVESQQSQEPPNPELPTKPLEEKLTEASTSSKKKEKRKHMDHVESSLFIAPGTVRSSDDLEENSSEHKVPSRNSHSDSSIYIRRHTNRSLELDHFSYVQLRNAADLDDRRNRVLNRYNSQKLTELILQFYGIRADMKREYKHARLSMTGTNSSGEAVPLGNQSPPNDSLTQFVQQPDVIYFILFLWLLVYCLLLFPQLDVSRL
As for B4, the log2FC is on record as -1.505 and the Class entry is given as “Down”.

B5: sp¦Q7TT15¦GLT17_MOUSE (protein, UniProt Q7TT15 1-598, looked up)
Polypeptide …: MASLRRVKVLLVLNLIAVAGFVIFLAKCRPIAVRSGDAFHEIRPRAEVANLSAHSASPIQDAVLKRLSLLEDIVYRQLNGLSKSLGLIEGYGGRGKGGLPATLSPSEEEKAKGPHEKYGYNSYLSEKISLDRSIPDYRPTKCKELKYSKELPQISIIFIFVNEALSVILRSVHSAVNHTPTHLLKEIILVDDNSDEEELKAPLEEYVHKRYPGLVKVVRNQKREGLIRARIEGWKAATGQVTGFFDAHVEFTAGWAEPVLSRIQENRKRVILPSIDNIKQDNFEVQRYENSAHGYSWELWCMYISPPKDWWDAGDPSLPIRTPAMIGCSFVVNRKFFGEIGLLDPGMDVYGGENIELGIKVWLCGGSMEVLPCSRVAHIERKKKPYNSNIGFYTKRNALRVAEVWMDDYKSHVYIAWNLPLENPGIDIGDVSERKALRKSLKCKNFQWYLDHVYPEMRRYNNTIAYGELRNNKAKDVCLDQGPLENHTAILYPCHGWGPQLARYTKEGFLHLGALGTTTLLPDTRCLVDNSKSRLPQLLDCDKVKSSLYKRWNFIQNGAIMNKGTGRCLEVENRGLAGIDLILRSCTGQRWAIKNPIK
Turning to B5, the log2FC is on record as -1.487 and the Class entry is “Down”.

B6: sp¦Q61097¦KSR1_MOUSE (protein, UniProt Q61097 1-873, looked up)
Kinase suppressor of Ras 1: MDRAALRAAAMGEKKEGGGGGAAADGGAGAAVSRALQQCGQLQKLIDISIGSLRGLRTKCSVSNDLTQQEIRTLEAKLVKYICKQQQSKLSVTPSDRTAELNSYPRFSDWLYIFNVRPEVVQEIPQELTLDALLEMDEAKAKEMLRRWGASTEECSRLQQALTCLRKVTGLGGEHKMDSGWSSTDARDSSLGPPMDMLSSLGRAGASTQGPRSISVSALPASDSPVPGLSEGLSDSCIPLHTSGRLTPRALHSFITPPTTPQLRRHAKLKPPRTPPPPSRKVFQLLPSFPTLTRSKSHESQLGNRIDDVTPMKFELPHGSPQLVRRDIGLSVTHRFSTKSWLSQVCNVCQKSMIFGVKCKHCRLKCHNKCTKEAPACRITFLPLARLRRTESVPSDINNPVDRAAEPHFGTLPKALTKKEHPPAMNLDSSSNPSSTTSSTPSSPAPFLTSSNPSSATTPPNPSPGQRDSRFSFPDISACSQAAPLSSTADSTRLDDQPKTDVLGVHEAEAEEPEAGKSEAEDDEEDEVDDLPSSRRPWRGPISRKASQTSVYLQEWDIPFEQVELGEPIGQGRWGRVHRGRWHGEVAIRLLEMDGHNQDHLKLFKKEVMNYRQTRHENVVLFMGACMNPPHLAIITSFCKGRTLHSFVRDPKTSLDINKTRQIAQEIIKGMGYLHAKGIVHKDLKSKNVFYDNGKVVITDFGLFGISGVVREERRENQLKLSHDWLCYLAPEIVREMIPGRDEDQLPFSKAADVYAFGTVWYELQARDWPFKHQPAEALIWQIGSGEGVRRVLASVSLGKEVGEILSACWAFDLQERPSFSLLMDMLERLPKLNRRLSHPGHFWKSADINSSKVMPRFERFGLGTLESGNPKM
With B6, the log2FC is on record as -1.493 and the Class entry is listed as “Down”.
